# Data published in patent publication US20040176301A1 (CYCLACEL, published 2004).
# Square brackets hold non-standard residues; d marks the D form. Phe(4-F) = N[C@@H](Cc1ccc(F)cc1)C(=O)O; 1Nal = N[C@@H](Cc1cccc2ccccc12)C(=O)O; Cha = N[C@@H](CC1CCCCC1)C(=O)O; Cit = NC(=O)NCCC[C@H](N)C(=O)O; Phg = N[C@H](C(=O)O)c1ccccc1; Tle = CC(C)(C)[C@H](N)C(=O)O; Nle = CCCC[C@H](N)C(=O)O; Nva = CCC[C@H](N)C(=O)O; Abu = CC[C@H](N)C(=O)O
# Molecular target: T1, CDK2/cyclin A (UniProt P24941 1-298; P20248 1-432)
# Assay: cell-based or functional assay
row,Binder,"Relative activity, Kinase Inhibition (CDK2/cyclin A kinase assay, pRb substrate, [ATP] = 100 µM)"
1,H-HVKRRLIF-NH2 [H-His-Val-Lys-Arg-Arg-Leu-Ile-Phe-NH2],2 relative to H-His-Ala-Lys-Arg-Arg-Leu-Ile-Phe-NH2 (=1)
2,H-H[Abu]KRRLIF-NH2 (SMILES CC[C@H](NC(=O)[C@@H](N)Cc1c[nH]cn1)C(=O)N[C@@H](CCCCN)C(=O)N[C@@H](CCCNC(=N)N)C(=O)N[C@@H](CCCNC(=N)N)C(=O)N[C@@H](CC(C)C)C(=O)N[C@H](C(=O)N[C@@H](Cc1ccccc1)C(N)=O)[C@@H](C)CC) [H-His-Abu-Lys-Arg-Arg-Leu-Ile-Phe-NH2],5 relative to H-His-Ala-Lys-Arg-Arg-Leu-Ile-Phe-NH2 (=1)
3,H-HIKRRLIF-NH2 [H-His-Ile-Lys-Arg-Arg-Leu-Ile-Phe-NH2],0.5 relative to H-His-Ala-Lys-Arg-Arg-Leu-Ile-Phe-NH2 (=1)
4,"H-H[Phg]KRRLIF-NH2 (also: Phg racemic, mixture of diastereomers) [H-His-Phg-Lys-Arg-Arg-Leu-Ile-Phe-NH2]",< 0.1 relative to H-His-Ala-Lys-Arg-Arg-Leu-Ile-Phe-NH2 (=1)
5,H-H[Tle]KRRLIF-NH2 (SMILES CC[C@H](C)[C@H](NC(=O)[C@H](CC(C)C)NC(=O)[C@H](CCCNC(=N)N)NC(=O)[C@H](CCCNC(=N)N)NC(=O)[C@H](CCCCN)NC(=O)[C@@H](NC(=O)[C@@H](N)Cc1c[nH]cn1)C(C)(C)C)C(=O)N[C@@H](Cc1ccccc1)C(N)=O) [H-His-Bug-Lys-Arg-Arg-Leu-Ile-Phe-NH2],0.2 relative to H-His-Ala-Lys-Arg-Arg-Leu-Ile-Phe-NH2 (=1)
6,H-HFKRRLIF-NH2 [H-His-Phe-Lys-Arg-Arg-Leu-Ile-Phe-NH2],0.5 relative to H-His-Ala-Lys-Arg-Arg-Leu-Ile-Phe-NH2 (=1)
7,H-H[Nva]KRRLIF-NH2 (SMILES CCC[C@H](NC(=O)[C@@H](N)Cc1c[nH]cn1)C(=O)N[C@@H](CCCCN)C(=O)N[C@@H](CCCNC(=N)N)C(=O)N[C@@H](CCCNC(=N)N)C(=O)N[C@@H](CC(C)C)C(=O)N[C@H](C(=O)N[C@@H](Cc1ccccc1)C(N)=O)[C@@H](C)CC) [H-His-Nva-Lys-Arg-Arg-Leu-Ile-Phe-NH2],< 0.1 relative to H-His-Ala-Lys-Arg-Arg-Leu-Ile-Phe-NH2 (=1)

# Molecular target: T1, CDK2/cyclin A
# Assay: cell-based or functional assay
# Remark: another data set of the same source
row,Binder,"Relative activity, Kinase Inhibition (CDK2/cyclin A kinase assay, pRb substrate, [ATP] = 100 µM)"
1,H-AAKQRLI[Phe(4-F)]-NH2 (SMILES CC[C@H](C)[C@H](NC(=O)[C@H](CC(C)C)NC(=O)[C@H](CCCNC(=N)N)NC(=O)[C@H](CCC(N)=O)NC(=O)[C@H](CCCCN)NC(=O)[C@H](C)NC(=O)[C@H](C)N)C(=O)N[C@@H](Cc1ccc(F)cc1)C(N)=O) [H-Ala-Ala-Lys-Gln-Arg-Leu-Ile-pFPhe-NH2],4 relative to H-His-Ala-Lys-Arg-Arg-Leu-Ile-Phe-NH2 (=1)
2,H-AA[Abu]RRLI[Phe(4-F)]-NH2 (SMILES CC[C@H](NC(=O)[C@H](C)NC(=O)[C@H](C)N)C(=O)N[C@@H](CCCNC(=N)N)C(=O)N[C@@H](CCCNC(=N)N)C(=O)N[C@@H](CC(C)C)C(=O)N[C@H](C(=O)N[C@@H](Cc1ccc(F)cc1)C(N)=O)[C@@H](C)CC) [H-Ala-Ala-Abu-Arg-Arg-Leu-Ile-pFPhe-NH2],60 relative to H-His-Ala-Lys-Arg-Arg-Leu-Ile-Phe-NH2 (=1)
3,H-AAKRRLA[Phe(4-F)]-NH2 (SMILES CC(C)C[C@H](NC(=O)[C@H](CCCNC(=N)N)NC(=O)[C@H](CCCNC(=N)N)NC(=O)[C@H](CCCCN)NC(=O)[C@H](C)NC(=O)[C@H](C)N)C(=O)N[C@@H](C)C(=O)N[C@@H](Cc1ccc(F)cc1)C(N)=O) [H-Ala-Ala-Lys-Arg-Arg-Leu-Ala-pFPhe-NH2],20 relative to H-His-Ala-Lys-Arg-Arg-Leu-Ile-Phe-NH2 (=1)
4,AKRRLIX (pFPhe (p-fluorophenylalanine) at position 7; C-terminal amide (-NH2)) [H-Ala-Lys-Arg-Arg-Leu-Ile-pFPhe-NH2],4 relative to H-His-Ala-Lys-Arg-Arg-Leu-Ile-Phe-NH2 (=1)
5,H-AAKRRLI[Phe(4-F)]-NH2 (SMILES CC[C@H](C)[C@H](NC(=O)[C@H](CC(C)C)NC(=O)[C@H](CCCNC(=N)N)NC(=O)[C@H](CCCNC(=N)N)NC(=O)[C@H](CCCCN)NC(=O)[C@H](C)NC(=O)[C@H](C)N)C(=O)N[C@@H](Cc1ccc(F)cc1)C(N)=O) [H-Ala-Ala-Lys-Arg-Arg-Leu-Ile-pFPhe-NH2],80 relative to H-His-Ala-Lys-Arg-Arg-Leu-Ile-Phe-NH2 (=1)
6,H-AAKR[Cit]LI[Phe(4-F)]-NH2 (SMILES CC[C@H](C)[C@H](NC(=O)[C@H](CC(C)C)NC(=O)[C@H](CCCNC(N)=O)NC(=O)[C@H](CCCNC(=N)N)NC(=O)[C@H](CCCCN)NC(=O)[C@H](C)NC(=O)[C@H](C)N)C(=O)N[C@@H](Cc1ccc(F)cc1)C(N)=O) [H-Ala-Ala-Lys-Arg-Cit-Leu-Ile-pFPhe-NH2],10 relative to H-His-Ala-Lys-Arg-Arg-Leu-Ile-Phe-NH2 (=1)
7,H-AA[Abu]RSLI[Phe(4-F)]-NH2 (SMILES CC[C@H](NC(=O)[C@H](C)NC(=O)[C@H](C)N)C(=O)N[C@@H](CCCNC(=N)N)C(=O)N[C@@H](CO)C(=O)N[C@@H](CC(C)C)C(=O)N[C@H](C(=O)N[C@@H](Cc1ccc(F)cc1)C(N)=O)[C@@H](C)CC) [H-Ala-Ala-Abu-Arg-Ser-Leu-Ile-pFPhe-NH2],14 relative to H-His-Ala-Lys-Arg-Arg-Leu-Ile-Phe-NH2 (=1)

# Molecular target: T1, CDK2/cyclin A
# Assay: cell-based or functional assay
# Remark: another data set of the same source
row,Binder,"Relative activity, Kinase Inhibition (CDK2/cyclin A kinase assay, pRb substrate, [ATP] = 100 µM)"
1,H-HAKRR[Nva]IF-NH2 (SMILES CCC[C@H](NC(=O)[C@H](CCCNC(=N)N)NC(=O)[C@H](CCCNC(=N)N)NC(=O)[C@H](CCCCN)NC(=O)[C@H](C)NC(=O)[C@@H](N)Cc1c[nH]cn1)C(=O)N[C@H](C(=O)N[C@@H](Cc1ccccc1)C(N)=O)[C@@H](C)CC) [H-His-Ala-Lys-Arg-Arg-Nva-Ile-Phe-NH2],< 0.1 relative to H-His-Ala-Lys-Arg-Arg-Leu-Ile-Phe-NH2 (=1)
2,H-HAKRRFIF-NH2 [H-His-Ala-Lys-Arg-Arg-Phe-Ile-Phe-NH2],< 0.1 relative to H-His-Ala-Lys-Arg-Arg-Leu-Ile-Phe-NH2 (=1)
3,H-HAKRR[Nle]IF-NH2 (SMILES CCCC[C@H](NC(=O)[C@H](CCCNC(=N)N)NC(=O)[C@H](CCCNC(=N)N)NC(=O)[C@H](CCCCN)NC(=O)[C@H](C)NC(=O)[C@@H](N)Cc1c[nH]cn1)C(=O)N[C@H](C(=O)N[C@@H](Cc1ccccc1)C(N)=O)[C@@H](C)CC) [H-His-Ala-Lys-Arg-Arg-Nle-Ile-Phe-NH2],< 0.1 relative to H-His-Ala-Lys-Arg-Arg-Leu-Ile-Phe-NH2 (=1)
4,H-HAKRRIIF-NH2 [H-His-Ala-Lys-Arg-Arg-Ile-Ile-Phe-NH2],1.5 relative to H-His-Ala-Lys-Arg-Arg-Leu-Ile-Phe-NH2 (=1)
5,H-HAKRR[Cha]IF-NH2 (SMILES CC[C@H](C)[C@H](NC(=O)[C@H](CC1CCCCC1)NC(=O)[C@H](CCCNC(=N)N)NC(=O)[C@H](CCCNC(=N)N)NC(=O)[C@H](CCCCN)NC(=O)[C@H](C)NC(=O)[C@@H](N)Cc1c[nH]cn1)C(=O)N[C@@H](Cc1ccccc1)C(N)=O) [H-His-Ala-Lys-Arg-Arg-Cha-Ile-Phe-NH2],< 0.1 relative to H-His-Ala-Lys-Arg-Arg-Leu-Ile-Phe-NH2 (=1)
6,H-HAKRR[1Nal]IF-NH2 (SMILES CC[C@H](C)[C@H](NC(=O)[C@H](Cc1cccc2ccccc12)NC(=O)[C@H](CCCNC(=N)N)NC(=O)[C@H](CCCNC(=N)N)NC(=O)[C@H](CCCCN)NC(=O)[C@H](C)NC(=O)[C@@H](N)Cc1c[nH]cn1)C(=O)N[C@@H](Cc1ccccc1)C(N)=O) [H-His-Ala-Lys-Arg-Arg-1Nap-Ile-Phe-NH2],< 0.1 relative to H-His-Ala-Lys-Arg-Arg-Leu-Ile-Phe-NH2 (=1)
7,H-HAKRRVIF-NH2 [H-His-Ala-Lys-Arg-Arg-Val-Ile-Phe-NH2],< 0.1 relative to H-His-Ala-Lys-Arg-Arg-Leu-Ile-Phe-NH2 (=1)
